Laboratory results from patent US7132278B2, “PAS kinase” (Board of Regents, The University of Texas System, priority 2001, dated 2006).
Positions count from the first letter of the chain named. Names and notes keep the numbering of the source.

B1: K1028R: dominant negative human PASK, conserved lysine in ATP-binding region mutated to arginine (protein, UniProt Q96RG2 1-1323, looked up, variant K1028R)
PAS domain-containing …: MEDGGLTAFEEDQRCLSQSLPLPVSAEGPAAQTTAEPSRSFSSAHRHLSRRNGLSRLCQSRTALSEDRWSSYCLSSLAAQNICTSKLHCPAAPEHTDPSEPRGSVSCCSLLRGLSSGWSSPLLPAPVCNPNKAIFTVDAKTTEILVANDKACGLLGYSSQDLIGQKLTQFFLRSDSDVVEALSEEHMEADGHAAVVFGTVVDIISRSGEKIPVSVWMKRMRQERRLCCVVVLEPVERVSTWVAFQSDGTVTSCDSLFAHLHGYVSGEDVAGQHITDLIPSVQLPPSGQHIPKNLKIQRSVGRARDGTTFPLSLKLKSQPSSEEATTGEAAPVSGYRASVWVFCTISGLITLLPDGTIHGINHSFALTLFGYGKTELLGKNITFLIPGFYSYMDLAYNSSLQLPDLASCLDVGNESGCGERTLDPWQGQDPAEGGQDPRINVVLAGGHVVPRDEIRKLMESQDIFTGTQTELIAGGQLLSCLSPQPAPGVDNVPEGSLPVHGEQALPKDQQITALGREEPVAIESPGQDLLGESRSEPVDVKPFASCEDSEAPVPAEDGGSDAGMCGLCQKAQLERMGVSGPSGSDLWAGAAVAKPQAKGQLAGGSLLMHCPCYGSEWGLWWRSQDLAPSPSGMAGLSFGTPTLDEPWLGVENDREELQTCLIKEQLSQLSLAGALDVPHAELVPTECQAVTAPVSSCDLGGRDLCGGCTGSSSACYALATDLPGGLEAVEAQEVDVNSFSWNLKELFFSDQTDQTSSNCSCATSELRETPSSLAVGSDPDVGSLQEQGSCVLDDRELLLLTGTCVDLGQGRRFRESCVGHDPTEPLEVCLVSSEHYAASDRESPGHVPSTLDAGPEDTCPSAEEPRLNVQVTSTPVIVMRGAAGLQREIQEGAYSGSCYHRDGLRLSIQFEVRRVELQGPTPLFCCWLVKDLLHSQRDSAARTRLFLASLPGSTHSTAAELTGPSLVEVLRARPWFEEPPKAVELEGLAACEGEYSQKYSTMSPLGSGAFGFVWTAVDKEKNKEVVVRFIKKEKVLEDCWIEDPKLGKVTLEIAILSRVEHANIIKVLDIFENQGFFQLVMEKHGSGLDLFAFIDRHPRLDEPLASYIFRQLVSAVGYLRLKDIIHRDIKDENIVIAEDFTIKLIDFGSAAYLERGKLFYTFCGTIEYCAPEVLMGNPYRGPELEMWSLGVTLYTLVFEENPFCELEETVEAAIHPPYLVSKELMSLVSGLLQPVPERRTTLEKLVTDPWVTQPVNLADYTWEEVFRVNKPESGVLSAASLEMGNRSLSDVAQAQELCGGPVPGEAPNGQGCLHPGDPRLLTS
B2: S1273,77,80A: PASK mutant, serine residues 1273, 1277 and 1280 changed to alanine (protein)
chain: B1 PAS domain-containing … with Y899H, R1028K, F1266C, S1273A, S1277A, S1280A
modifications: left off: small tags and cut ends
notes: PASK mutant, serine residues 1273, 1277 and 1280 changed to alanine
B3: wildtype: His6-tagged human PASK enzyme expressed in baculovirus-infected Sf-9 cells (protein)
chain: B1 PAS domain-containing … with Y899H, R1028K, F1266C
modifications: left off: small tags and cut ends
notes: His6-tagged human PASK enzyme expressed in baculovirus-infected Sf-9 cells
B4: S1273-1289A: PASK mutant, all five serines simultaneously changed to alanine (protein)
chain: B1 PAS domain-containing … with Y899H, R1028K, F1266C, S1273A, S1277A, S1280A, S1287A, S1289A
modifications: left off: small tags and cut ends
notes: PASK mutant, all five serines simultaneously changed to alanine
B5: T1165A: PASK mutant, threonine residue 1165 changed to alanine (protein, UniProt Q96RG2 1-1323, looked up, variant T1165A)
PAS domain-containing …: B1 PAS domain-containing … with R1028K, T1165A
B6: S1287,89A: PASK mutant, serine residues 1287 and 1289 changed to alanine (protein)
chain: B1 PAS domain-containing … with Y899H, R1028K, F1266C, S1287A, S1289A
modifications: left off: small tags and cut ends
notes: PASK mutant, serine residues 1287 and 1289 changed to alanine
B7: S1149A: PASK mutant, serine residue 1149 changed to alanine (protein)
chain: B1 PAS domain-containing … with Y899H, R1028K, S1149A, F1266C
modifications: left off: small tags and cut ends
notes: PASK mutant, serine residue 1149 changed to alanine
B8: PASK ΔN: truncated human PASK variant lacking both PAS domains, 948 amino-terminal residues removed, His6 tag (protein)
chain: SLPGSTHSTAAELTGPSLVEVLRARPWFEEPPKAVELEGLAACEGEYSQKYSTMSPLGSGAFGFVWTAVDKEKNKEVVVKFIKKEKVLEDCWIEDPKLGKVTLEIAILSRVEHANIIKVLDIFENQGFFQLVMEKHGSGLDLFAFIDRHPRLDEPLASYIFRQLVSAVGYLRLKDIIHRDIKDENIVIAEDFTIKLIDFGSAAYLERGKLFYTFCGTIEYCAPEVLMGNPYRGPELEMWSLGVTLYTLVFEENPFCELEETVEAAIHPPYLVSKELMSLVSGLLQPVPERRTTLEKLVTDPWVTQPVNLADYTWEEVCRVNKPESGVLSAASLEMGNRSLSDVAQAQELCGGPVPGEAPNGQGCLHPGDPRLLTS
modifications: left off: small tags and cut ends
notes: truncated human PASK variant lacking both PAS domains, 948 amino-terminal residues removed, His6 tag

What was measured:
Test in all cases: PASK kinase assay, 32P incorporation into AMARA peptide substrate
AMARA peptide [1] = format: biochemical, human; conditions: for Catalytic activity: baculovirus-expressed enzyme variant; for Vmax / Km: Pre-phosphorylated enzyme; for Vmax: peptide substrate; for Km: peptide substrate 0.06–1 mM
Method: (§1) Biochemical properties of the Pask enzyme. A recombinant baculovirus was engineered to overexpress human PASK enzyme in cultured insect cells. The enzyme was expressed as a fusion with a His6 tag at its amino terminus such that the recombinant polypeptide could be purified by Ni-affinity chromatography. Routine enzyme preparations were harvested from 0.8 liter of cultured Sf-9 cells. Cells were lysed by dounce homogenization in 50 mM Tris-HCl, pH 8.0, 100 mM NaCl, 0.04% β-mercaptoethanol (“lysis buffer”) and spun at 100,000×G for one hour to remove insoluble debris. Soluble material (˜50 ml) was then applied to a 3 ml bed volume of Ni-affinity resin. Following application and 50× column volume wash, bound material was eluted with storage buffer (50 mM HEPES, pH 7.4, 100 mM NaCl, 1 mM DTT, 1 mM EDTA) supplemented with 250 mM imidazole. Eluted material was sequentially subjected to Mono-Q, anion-exchange chromatography, and eluted with increasing NaCl concentration. Fractions were evaluated by SDS-PAGE to identify PASK enriched fractions, pooled and dialyzed against storage buffer supplemented with 10% glycerol. Typical enzyme preparations yield 0.5 mg of intact PASK enzyme judged to be greater than 95% pure by visual inspection of Coomassie-stained SDS-PAGE gels.
(§2) Kinetic data were used to characterize the activities of PASK enzyme samples derived without modification from baculovirus and following pre-phosphorylation in the presence of ATP. Enzyme activity was monitored using a synthetic substrate bearing the sequence NH2-[…]-CO2H (AMARA peptide, SEQ ID NO:9). The serine residue in this peptide is known to be phosphorylated by both AMPK and Snf1 [2], both of which are exceedingly similar in primary amino acid sequence to the catalytic domain of PASK. The three arginine residues located at the carboxyl terminus of the AMARA peptide allow avid binding to phosphocellulose paper, thereby facilitating quantitation of ^32P incorporation catalyzed by PASK from [γ-^32P]ATP. […] Moreover, lambda phosphatase treatment generated an enzyme which had 7-fold lower activity than the unmodified enzyme, and this treatment was fully reversible by allowing the enzyme to autophosphorylate in the presence of ATP.
(§3) PASK concentrations (0.5–2 μg/ml) were determined to have linear rates with respect to protein concentration and time. Kinetic constants were determined using peptide substrate concentrations between 0.06–1 mM. The data were fit to a non-linear Michaelis-Menten equation using the GraphPad Prism 2.0 program. Vmax values given are μmol/min/mg. NS indicates an SE less than 0.05.

AMARA peptide [2] = target: T1, AMARA peptide (Homo sapiens, UniProt Q96RG2, F1266C/Y899H); format: biochemical; conditions: Untreated enzyme
T1 construct: Compounds are checked for effects on both full length and truncated versions of PASK; His6 (N); made in house; host or cells: baculovirus-infected Sf-9 insect cells
Method: as §1, §2, §3

AMARA peptide [3] = target: T2, AMARA peptide (Homo sapiens, UniProt Q96RG2, F1266C); format: biochemical; conditions: truncated variant vs native enzyme
T2 construct: Compounds are checked for effects on both full length and truncated versions of PASK; His6 (N); made in house; host or cells: baculovirus-infected Sf-9 insect cells
Method: as §1, §2, §3

T1 sequence (Q96RG2 whole entry Y899H/F1266C, the tested form may be a part): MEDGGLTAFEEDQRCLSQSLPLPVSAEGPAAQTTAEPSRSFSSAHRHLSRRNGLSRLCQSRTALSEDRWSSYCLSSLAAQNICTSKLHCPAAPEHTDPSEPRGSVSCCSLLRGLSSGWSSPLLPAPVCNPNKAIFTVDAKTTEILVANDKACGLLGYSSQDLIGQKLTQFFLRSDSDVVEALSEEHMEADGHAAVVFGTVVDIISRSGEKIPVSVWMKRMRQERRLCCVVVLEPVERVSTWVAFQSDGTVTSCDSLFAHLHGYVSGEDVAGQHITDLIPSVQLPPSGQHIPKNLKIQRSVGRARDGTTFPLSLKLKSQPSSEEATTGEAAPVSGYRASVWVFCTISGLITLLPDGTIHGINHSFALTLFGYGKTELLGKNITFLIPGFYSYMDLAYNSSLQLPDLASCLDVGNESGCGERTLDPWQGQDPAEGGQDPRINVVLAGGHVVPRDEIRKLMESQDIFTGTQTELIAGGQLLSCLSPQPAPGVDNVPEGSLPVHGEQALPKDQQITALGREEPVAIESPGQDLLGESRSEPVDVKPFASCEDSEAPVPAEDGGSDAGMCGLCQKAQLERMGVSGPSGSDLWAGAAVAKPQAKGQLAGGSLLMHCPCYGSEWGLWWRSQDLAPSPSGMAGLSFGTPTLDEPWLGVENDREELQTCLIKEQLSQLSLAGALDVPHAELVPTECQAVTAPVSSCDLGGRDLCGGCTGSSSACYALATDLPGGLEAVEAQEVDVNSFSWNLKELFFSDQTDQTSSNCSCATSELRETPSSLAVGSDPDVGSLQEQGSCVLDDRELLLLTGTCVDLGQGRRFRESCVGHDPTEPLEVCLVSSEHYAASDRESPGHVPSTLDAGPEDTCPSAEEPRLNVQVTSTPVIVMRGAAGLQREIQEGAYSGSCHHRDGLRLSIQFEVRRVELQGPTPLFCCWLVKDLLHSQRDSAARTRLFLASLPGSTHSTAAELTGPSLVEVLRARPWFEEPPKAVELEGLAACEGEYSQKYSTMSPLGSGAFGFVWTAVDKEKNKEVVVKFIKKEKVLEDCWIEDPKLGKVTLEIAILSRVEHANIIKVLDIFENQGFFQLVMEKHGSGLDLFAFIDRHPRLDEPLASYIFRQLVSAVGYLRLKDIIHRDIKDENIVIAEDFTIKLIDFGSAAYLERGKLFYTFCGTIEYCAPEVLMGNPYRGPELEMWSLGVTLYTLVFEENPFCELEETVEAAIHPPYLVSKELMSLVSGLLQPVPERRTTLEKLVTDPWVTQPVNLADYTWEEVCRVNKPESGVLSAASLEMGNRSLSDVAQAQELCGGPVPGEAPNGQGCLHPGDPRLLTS

Row | Molecule | Catalytic activity (AMARA peptide [1]) | Vmax (AMARA peptide [1]) [µmol/min/mg] | Km (AMARA peptide [1]) [µM] | Vmax (AMARA peptide [2]; peptide substrate) [µmol/min/mg] | Km (AMARA peptide [2]; peptide substrate 0.06–1 mM) [µM] | catalytic rate constant (Vmax) higher than the native enzyme (AMARA peptide [3]) [fold]
1 | B1 | completely inactive | – | – | – | – | –
2 | B2 | – | 0.4 | 300 | – | – | –
3 | B3 | – | 0.2 | 200 | 0.1 | 1300 | –
4 | B4 | – | 0.1 | 200 | – | – | –
5 | B5 | Catalytically inactive | – | – | – | – | –
6 | B6 | – | 0.1 | 200 | – | – | –
7 | B7 | – | 0.1 | 600 | – | – | –
8 | B8 | – | 2.8 | 300 | – | – | 18
